# US20230192897A1 (NUMAB THERAPEUTICS, published 2023)
# Changes are numbered by the printed parent chain.
# B1: PRO1482 (other)
# chain: DIQMTQSPSSLSASVGDRVTITCQASQSINNVLAWYQQKPGKAPKLLIYRASTLASGVPSRFSGSGSGTDFTLTISSLQPEDFATYYCQSSYGNYGDFGCGTKVTVLGGGGGSEVQLVESGGGLVQPGGSLRLSCAASGFSFNSDYWIYWVRQAPGKGLEWIASIYGGSSGNTQYASWAQGRFTISRDNSKNTVYLQMNSLRAEDTAVYFCARGYVDYGGATDLWGQGTLVTVSSGGGGSGGGGSGGGGSGGGGSIQMTQSPASLSASVGDRVTITCQASQSIGTYLAWYQQKPGKPPKLLIYRAFILASGVPSRFSGSGSGTDFTLTISSLQPEDFATYYCQSNFYSDSTTIGPNAFGTGTKVTVLGGGGGSEVQLVESGGGLVQPGGSLRLSCAASGFSFSNSYWICWVRQAPGKCLEWIGCTFVGSSDSTYYANWAKGRFTISRDNSKNTVYLQMNSLRAEDTAVYYCARHPSDAVYGYANNLWGQGTLVTVSSGGGGSGGGGSIQMTQSPSSLSASVGDRVTITCQSSESVYSNNQLSWYQQKPGQPPKLLIYDASDLASGVPSRFSGSGSGTDFTLTISSLQPEDFATYYCAGGFSSSSDTAFGGGTKLTVLGGGGGSGGGGSGGGGSGGGGSEVQLVESGGGLVQPGGSLRLSCAASGFSLSSNAMGWVRQAPGKGLEYIGIISVGGFTYYASWAKGRFTISRDNSKNTVYLQMNSLRAEDTATYFCARDRHGGDSSGAFYLWGQGTLVTVSS
# notes: trispecific scDb-scFv; also called 37-20-B03 sc09.1 scDb-i/38-02-A04 sc13 scDb-o/19-01-H04 sc03 scFv
# B2: PRO1431 (other)
# chain: DIQMTQSPSSLSASVGDRVTITCQASQSINDYLAWYQQKPGKAPKLLIYKASTLASGVPSRFSGSGSGTDFTLTISSLQPEDFATYYCQQGYIITDIDNVFGTGTKVTVLGGGGGSEVQLVESGGGLVQPGGSLRLSCAASGFSFSNSYWICWVRQAPGKCLEWIGCTFVGSSDSTYYANWAKGRFTISRDNSKNTVYLQMNSLRAEDTAVYYCARHPSDAVYGYANNLWGQGTLVTVSSGGGGSGGGGSGGGGSGGGGSIQMTQSPSSLSASVGDRVTITCQASQSINNVLAWYQQKPGKAPKLLIYRASTLASGVPSRFSGSGSGTDFTLTISSLQPEDFATYYCQSSYGNYGDFGCGTKVTVLGGGGGSQVQLQESGPGLVKPSETLSLTCKASGFSFSSGYDMCWVRQPPGKGLEWIACVVAGSVDITYYASWAKGRVTISKDSSKNQVSLKLSSVTAADTAVYYCARKDAYSDAFNLWGQGTLVTVSSGGGGSGGGGSIQMTQSPSSLSASVGDRVTITCQSSESVYSNNQLSWYQQKPGQPPKLLIYDASDLASGVPSRFSGSGSGTDFTLTISSLQPEDFATYYCAGGFSSSSDTAFGGGTKLTVLGGGGGSGGGGSGGGGSGGGGSEVQLVESGGGLVQPGGSLRLSCAASGFSLSSNAMGWVRQAPGKGLEYIGIISVGGFTYYASWAKGRFTISRDNSKNTVYLQMNSLRAEDTATYFCARDRHGGDSSGAFYLWGQGTLVTVSS
# notes: trispecific scDb-scFv; also called 38-02-A04 sc13 scDb-i/33-03-G02 sc18 scDb-o/19-01-H04 sc03 scFv
# B3: PRO1473 (other)
# chain: B2 chain with I2F, M4L, A43S, V374S, Y469F
# notes: trispecific scDb-scFv; also called 38-02-A04 sc13 scDb-i/33-03-G02 sc03 scDb-o/19-01-H04 sc03 scFv
# Legend:
# Fc tagged human PDL1 = biological target: T1, Fc tagged human PDL1 (human, UniProt Q9NZQ7 19-239); assay: SPR
# T1 construct: Bought (Sino Biological, cat. 10084-H02H); captured on the SPR chip; also called PDL1-Fc chimeric protein
# Protocol: (§1) Affinity to PDL1 of the different species was determined by SPR measurements using a Biacore T200 device (GE Healthcare). An antibody specific for the Fc region of human IgGs was immobilized on a sensor chip (CM5 sensor chip, GE Healthcare) by amine-coupling. For all formats, with the exception of the Fc containing Morrison formats, PDL1-Fc chimeric protein from different species were captured by the immobilized antibody.
# (§2) Three-fold serial dilutions of the molecules specific for PDL1 (0.12-90 nM) were injected into the flow cells for three minutes and dissociation was monitored for 10 minutes. After each injection cycle, surfaces were regenerated with one injection of a 3 M MgCl₂ solution. The apparent dissociation (kd) and association (kₐ) rate constants and the apparent dissociation equilibrium constant (KD) were calculated using one-to-one Langmuir binding model. Affinity to CD137 of the different species was determined using the identical setup as for PDL1 with the exception that CD137-Fc chimeric protein from different species were captured by the immobilized antibody.
# Fc tagged human CD137 = biological target: T2, Fc tagged human CD137 (human, UniProt Q07011 24-186); assay: SPR
# T2 construct: also called CD137-Fc chimeric protein
# Protocol: as §1, §2
# human PDL1 on cells = human PDL1 on cells (human, UniProt Q9NZQ7 19-290); assay: cell-based or functional assay
# [1] = biological target: T3, CD137 on Jurkat NFkB reporter cells (human, UniProt Q07011 24-255); assay: cell-based or functional assay
# biotinylated human PDL1 [2] = biological target: T4, biotinylated human PDL1 (human, UniProt Q9NZQ7 19-238, limits assumed, biotinylated); assay: competition ELISA B7.1/PDL1
# T4 construct: also called biotinylated PDL1
# Protocol: Plates were blocked for 1 hour at room temperature by adding 300 μl of PBS with 1% BSA and 0.2% tween (dilution buffer) to each well. […] The mixtures were pre-incubated for 1 hour at room temperature under gentle agitation on a rotating mixer (21 rpm) and added to the microplates after 3 wash cycles with 450 μl wash buffer per well. Plates were incubated for 1.5 hours at room temperature under gentle agitation, then 10 ng/ml streptavidin-polyHRP40 was added to each microplate well after three washes with 450 μl of wash buffer per well. After 1 h incubation at RT, plates were washed three times with 450 μl wash buffer and TMB substrate solution was added. The enzymatic reaction was stopped after 6 minutes by addition of 1 M HCl and absorbance was measured at 450 nm using 690 nm as a reference wavelength. For calculation of IC₅₀ values, a four-parameter logistic (4PL) curve fit was performed in Graph Pad Prism using reference subtracted values.
# biotinylated human PDL1 [3] = biological target: T4, biotinylated human PDL1; assay: competition ELISA PD-1/PDL1
# Protocol: Plates were blocked for 1 hour at room temperature by adding 300 μl of PBS with i%BSA and 0.2% tween (dilution buffer) to each well. Inhibitors were serially diluted in 3-fold steps to final concentrations ranging from 300 to 0.005 ng/ml in dilution buffer containing 1 ng/ml biotinylated human PDL1. The mixtures were pre-incubated for 1 hour at room temperature under gentle agitation on a rotating mixer (21 rpm) and added to the microplates after 3 wash cycles with 450 μl wash buffer per well. Plates were incubated for 1.5 hours at room temperature under gentle agitation, then 10 ng/ml streptavidin-polyHRP40 was added to each microplate well after three washes with 450 μl of wash buffer per well. After 1 h incubation at RT, plates were washed three times with 450 μl wash buffer and TMB substrate solution was added. The enzymatic reaction was stopped after 6 minutes by addition of 1 M HCl and absorbance was measured at 450 nm using 690 nm as a reference wavelength. For calculation of IC₅₀ values, a four-parameter logistic (4PL) curve fit was performed in Graph Pad Prism using reference subtracted values.
# [4] = biological target: T3, CD137 on Jurkat NFkB reporter cells; assay: cell-based or functional assay; remark: listed apart in the source
Binder,Kd (Fc tagged human PDL1) [nM],kon (Fc tagged human PDL1) [M⁻¹ s⁻¹],Kd (Fc tagged human CD137) [nM],kon (Fc tagged human CD137) [M⁻¹ s⁻¹],"IC50 (ng/ml), NF-AT potency assay, +HSA (human PDL1 on cells) [ng/mL]","rel. IC50 (avelumab/test), +HSA (human PDL1 on cells) [fold]","IC50 (ng/ml) (EC50 in Table 16C), NFkB reporter, HCC827 + IFNg, 24 h, +HSA [1] [ng/mL]","rel. IC50 (PRO1186/test), 24 h [1] [fold]",IC50 (biotinylated human PDL1 [2]) [ng/mL],rel. IC50 (IC50 avelumab/IC50 test) (biotinylated human PDL1 [2]) [fold],IC50 (biotinylated human PDL1 [3]) [ng/mL],rel. IC50 (IC50 avelumab/IC50 test) (biotinylated human PDL1 [3]) [fold],koff (Fc tagged human PDL1) [s⁻¹],koff (Fc tagged human CD137) [s⁻¹],"Area under the curve (calculated using PRO885 normalized data), first line (6 h by the order of the upper part) [4]","Area under the curve (calculated using PRO885 normalized data), second line (24 h by the order of the upper part) [4]","EC50 [ng/ml], NF-kB reporter, HCC827 + IFNg, +HSA, 6 h [4] [ng/mL]","IC10/EC90 ratio, first line (6 h by the order of the upper part) [4]","IC10/EC90 ratio, second line (24 h by the order of the upper part) [4]","Maximum NF-kB activation (rel. to PRO1186) [%], first line (6 h by the order of the upper part) [4] [%]",also measured
B1,0.0098,3.4e+06,1.1,320000,54.8,0.68,7.24,1.23,8.18,1.51,1.78,1.24,,,,,,,,,"IC50 (ng/ml) (EC50 in Table 16C), NFkB reporter, HCC827 + IFNg, 6 h, +HSA [1]: 20.1 ng/mL; rel. IC50 (PRO1186/test), 6 h [1]: 0.55 fold"
B2,,,1.7,450000,9.83,3.73,18.4,1.02,3.31,0.84,2.75,0.51,4.5e-05,0.00075,83.2,119,21,5.03,16.1,55.3,"Maximum NF-kB activation (rel. to PRO1186) [%], second line (24 h by the order of the upper part) [4]: 68.6%; rel. Area under the curve (AUCsample/AUCPRO1186), first line (6 h by the order of the upper part) [4]: 0.4 fold; rel. Area under the curve (AUCsample/AUCPRO1186), second line (24 h by the order of the upper part) [4]: 0.54 fold; rel. EC50 (EC50, PRO1186/EC50, sample), NF-kB reporter, 6 h [4]: 0.68 fold; rel. EC50 (EC50, PRO1186/EC50, sample), NF-kB reporter, 24 h [4]: 1.02 fold; rel. IC10/EC90 (ratio of sample/ratio of PRO1186), first line (6 h by the order of the upper part) [4]: 0.3 fold; rel. IC10/EC90 (ratio of sample/ratio of PRO1186), second line (24 h by the order of the upper part) [4]: 1.74 fold"
B3,0.0082,3.6e+06,2,310000,35.2,1.11,0.91,3.55,8.89,1.49,4.14,0.56,2.9e-05,0.0006,52.3,188,2.4,53.9,15.7,36.2,"Maximum NF-kB activation (rel. to PRO1186) [%], second line (24 h by the order of the upper part) [4]: 67.4%; rel. Area under the curve (AUCsample/AUCPRO1186), first line (6 h by the order of the upper part) [4]: 0.31 fold; rel. Area under the curve (AUCsample/AUCPRO1186), second line (24 h by the order of the upper part) [4]: 0.73 fold; rel. EC50 (EC50, PRO1186/EC50, sample), NF-kB reporter, 6 h [4]: 2.3 fold; rel. EC50 (EC50, PRO1186/EC50, sample), NF-kB reporter, 24 h [4]: 3.55 fold; rel. IC10/EC90 (ratio of sample/ratio of PRO1186), first line (6 h by the order of the upper part) [4]: 1.01 fold; rel. IC10/EC90 (ratio of sample/ratio of PRO1186), second line (24 h by the order of the upper part) [4]: 0.12 fold"
